# Results as given in US5416015A, “Isolated genes encoding peptidyl prolyl-cis.trans-isomerase and plasmids comprising said genes” (Tonen Corporation, priority 1989, dated 1995).
# Experiment: Specific activity of enzyme (PPIase activity measurement)
# Format: biochemical
# Details: recombinant E. coli PPIase-β, FIG. 26
# Source text: As a result, the specific activity of the natural enzyme was.51,480 arbitrary units/[…] 1 unit, while that of the recombinant enzyme was 52,876 arbitrary units/A280 1 unit. Thus, no distinction could be made on specific activity (FIG. 26).
molecule,measurement,value
"recombinant enzyme: E. coli PPIase-β produced by E. coli HB101 transformed with expression plasmid pATtrp EPPIb (protein, UniProt P23869 1-164, looked up) Peptidyl-prolyl cis-trans …: MVTFHTNHGDIVIKTFDDKAPETVKNFLDYCREGFYNNTIFHRVINGFMIQGGGFEPGMKQKATKEPIKNEANNGLKNTRGTLAMARTQAPHSATAQFFINVVDNDFLNFSGESLQGWGYCVFAEVVDGMDVVDKIKGVATGRSGMHQDVPKEDVIIESVTVSE",specific activity,"52,876 arbitrary units/A280 1 unit"
